# “And” between values parts separate entries of the source, which are not always exact repeats. Equal entries are not always repeated.
# T1: Human CEACAM6-Domain 1-His-I30F (I63F according to SEQ-ID NO: 179) (human)
# T1 construct: the entry already carries the substitution; also called TPP-8698
# T1 chain: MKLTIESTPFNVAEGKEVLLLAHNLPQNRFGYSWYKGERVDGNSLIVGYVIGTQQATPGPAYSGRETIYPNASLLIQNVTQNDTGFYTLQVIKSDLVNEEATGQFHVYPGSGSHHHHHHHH
# T2: Human CEACAM6-Domain 1-His-I30L (I63L according to SEQ-ID NO: 179) (human)
# T2 construct: the entry already carries the substitution; also called TPP-8697
# T2 chain: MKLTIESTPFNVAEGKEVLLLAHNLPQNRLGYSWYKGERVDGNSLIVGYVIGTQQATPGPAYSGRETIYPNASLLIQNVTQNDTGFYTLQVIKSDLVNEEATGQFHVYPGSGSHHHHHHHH
# T3: human CEACAM6, full-length, on cells (human, UniProt P40199 35-320)
# T3 construct: used both for transfected HeLa cells and for tumor cell lines that express CEACAM6 endogenously; also called TPP-4639; HeLa human CEACAM6
# T3 sequence: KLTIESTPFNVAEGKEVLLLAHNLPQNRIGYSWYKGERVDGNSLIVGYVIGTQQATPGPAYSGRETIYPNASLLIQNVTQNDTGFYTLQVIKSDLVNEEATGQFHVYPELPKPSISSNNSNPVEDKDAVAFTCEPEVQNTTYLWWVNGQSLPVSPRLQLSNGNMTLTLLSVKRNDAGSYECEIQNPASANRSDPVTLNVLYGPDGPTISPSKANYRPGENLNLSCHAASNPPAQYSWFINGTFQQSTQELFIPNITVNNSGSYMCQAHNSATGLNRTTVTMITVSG
# How the values were obtained:
# [1] = molecular target: T1, Human CEACAM6-Domain 1-His-I30F (I63F …); assay: ELISA, domain 1 protein coated
# Protocol: (§1) The proteins were expressed in E. coli, refolded and purified as described in Example 1. Comparative binding activity to domain 1 wild-type protein and the two single mutations was determined by ELISA method. 1.5 ug/ml protein solutions in PBS were coated overnight to 384 Nunc MaxiSorp plates (Sigma, P6491). Plates were washed with PBS/T and blocked with Smart block (CANDOR Bioscience GmbH, 113125). […] After washing with PBS/T, bound antibodies were detected with Anti Human IgG Fc POD (Sigma, A0170) and 10 μM Amplex Red solution (Thermo, A12222). Positive binding signals were detected via Fluorescence (Ex. 535 nm/Em. 590 nm).
# [2] = molecular target: T2, Human CEACAM6-Domain 1-His-I30L (I63L …); assay: ELISA, domain 1 protein coated
# Protocol: as §1
# [3] = molecular target: T3, human CEACAM6, full-length, on cells; assay: FACS, SNU-C1 cells (endogenous CEACAM6)
# Protocol: (§2) For FACS experiments HeLa wild type cells were cultured in RPMI-1640, 10% FCS, while CEACAM-receptor transfected HeLa cells received in addition 0.5% Gentamycin (stock 10 mg/ml, Fa. PAA) and 200 μg/ml Hygromycin B (stock 50 mg/ml, Invitrogen). Cells were washed 3 times with PBS w/o Ca²⁺/Mg²⁺ and were detached from the culture plate non-enzymatically with EDTA dissociation buffer (Gibco). Cells were washed in cold FACS buffer (PBS w/o Ca²⁺/Mg²⁺ and heat-inactivated 3% FCS) and were counted using a countess machine (Invitrogen). 10⁵ cells per well were plated and incubated with the respective primary antibody (5 μg/ml) for 1 h at 4° C. on a plate shaker. […] After 2 times washing the cells were resuspended in 100 μl FACS buffer and were analysed on a FACS Canto II machine (Beckton Dickinson) or a FACS Array (Beckton Dickinson).
# (§3) For EC₅₀ analysis, the primary antibodies were used at increasing concentrations in a range from 0.1 nM to 100 nM. Half maximal binding values (EC₅₀) were determined by plotting the median fluorescence intensity signal against the concentration (logarithmic scale). Curve fitting of data was performed using the Graph Pad prism analysis software.
# (§4) Anti-CEACAM6 antibodies were also tested for their binding to different cancer cell lines that endogenously express CEACAM6 by FACS analysis. […]
# [4] = molecular target: T3, human CEACAM6, full-length, on cells; assay: FACS, T84 cells (endogenous CEACAM6)
# Protocol: as §2, §3, §4
# [5] = molecular target: T3, human CEACAM6, full-length, on cells; assay: FACS, NCI-H1993 cells (endogenous CEACAM6)
# Protocol: as §2, §3, §4
# [6] = molecular target: T3, human CEACAM6, full-length, on cells; assay: cell-based or functional assay
# [7] = molecular target: T3, human CEACAM6, full-length, on cells; assay: FACS, PaTu-8902 cells (endogenous CEACAM6)
# Protocol: as §2, §3, §4
# [8] = molecular target: T3, human CEACAM6, full-length, on cells; assay: FACS, KS cells (endogenous CEACAM6)
binder,measurement,setting,value
"TPP-3310 (antibody, human IgG2, kappa, humanized from TPP-2971, human IgG2; also called TPP-2971HU1-hIgG2Kappa) heavy: QVTLRESGPALVKPTQTLTLTCTFSGFSLSTYGIGVGWIRQPPGKALEWLAHIWWNDNKYYSTSLKTRLTISKDTSKNQVVLTMTNMDPVDTATYYCARISLPYFDYWGQGTTLTVSSASTKGPSVFPLAPCSRSTSESTAALGCLVKDYFPEPVTVSWNSGALTSGVHTFPAVLQSSGLYSLSSVVTVPSSNFGTQTYTCNVDHKPSNTKVDKTVERKCCVECPPCPAPPVAGPSVFLFPPKPKDTLMISRTPEVTCVVVDVSHEDPEVQFNWYVDGVEVHNAKTKPREEQFNSTFRVVSVLTVVHQDWLNGKEYKCKVSNKGLPAPIEKTISKTKGQPREPQVYTLPPSREEMTKNQVSLTCLVKGFYPSDIAVEWESNGQPENNYKTTPPMLDSDGSFFLYSKLTVDKSRWQQGNVFSCSVMHEALHNHYTQKSLSLSPG light: DIQLTQSPSFLSASVGDRVTITCKASQNVGTAVAWYQQKPGKAPKLLIYSASNRYTGVPSRFSGSGSGTEFTLTISSLQPEDFATYYCQQYSSYPLTFGGGTKVEIKRTVAAPSVFIFPPSDEQLKSGTASVVCLLNNFYPREAKVQWKVDNALQSGNSQESVTEQDSKDSTYSLSSTLTLSKADYEKHKVYACEVTHQGLSSPVTKSFNRGEC",binding result,[1],no binding
same,binding result,[2],binds
same,EC50,[3],0.5 nM
same,EC50,[4],0.3 nM
same,EC50,[5],0.8 to 1.6 nM
same,IC50 of the dose dependent effect on TIL mediated killing of HCC2935 cells (xCELLigence),[6],0.62 µg/mL and 0.21 µg/mL
same,EC50,[7],0.15 nM
same,EC50,[8],0.8 nM
